Test results from IntAct's records for PubMed 35512704.

B1: Speckle-type POZ protein (Homo sapiens), O43791 (parent)
chain: MSRVPSPPPPAEMSSGPVAESWCYTQIKVVKFSYMWTINNFSFCREEMGEVIKSSTFSSGANDKLKWCLRVNPKGLDEESKDYLSLYLLLVSCPKSEVRAKFKFSILNAKGEETKAMESQRAYRFVQGKDWGFKKFIRRDFLLDEANGLLPDDKLTLFCEVSVVQDSVNISGQNTMNMVKVPECRLADELGGLWENSRFTDCCLCVAGQEFQAHKAILAARSPVFSAMFEHEMEESKKNRVEINDVEPEVFKEMMCFIYTGKAPNLDKMADDLLAAADKYALERLKVMCEDALCSNLSVENAAEILILADLHSADQLKTQAVDFINYHASDVLETSGWKSMVVSHPHLVAEAYRSLASAQCPFLGPPRKRLKQS
partner: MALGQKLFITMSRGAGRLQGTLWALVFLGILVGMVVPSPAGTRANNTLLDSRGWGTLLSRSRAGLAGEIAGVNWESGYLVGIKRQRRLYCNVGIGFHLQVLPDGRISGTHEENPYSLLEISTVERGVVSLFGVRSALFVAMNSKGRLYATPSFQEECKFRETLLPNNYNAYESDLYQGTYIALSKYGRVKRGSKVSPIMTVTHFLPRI
B2: Speckle-type POZ protein (Homo sapiens), O43791 (parent)
chain: B1 chain
partner: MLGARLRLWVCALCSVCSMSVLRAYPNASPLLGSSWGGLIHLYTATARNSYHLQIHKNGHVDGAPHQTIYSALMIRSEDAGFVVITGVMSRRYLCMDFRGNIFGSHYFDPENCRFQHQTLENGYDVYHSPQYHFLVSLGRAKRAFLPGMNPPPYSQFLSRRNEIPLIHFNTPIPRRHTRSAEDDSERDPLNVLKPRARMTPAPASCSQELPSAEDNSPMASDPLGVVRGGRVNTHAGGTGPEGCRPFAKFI
B3: Speckle-type POZ protein (Homo sapiens), O43791 (parent)
chain: B1 chain
partner: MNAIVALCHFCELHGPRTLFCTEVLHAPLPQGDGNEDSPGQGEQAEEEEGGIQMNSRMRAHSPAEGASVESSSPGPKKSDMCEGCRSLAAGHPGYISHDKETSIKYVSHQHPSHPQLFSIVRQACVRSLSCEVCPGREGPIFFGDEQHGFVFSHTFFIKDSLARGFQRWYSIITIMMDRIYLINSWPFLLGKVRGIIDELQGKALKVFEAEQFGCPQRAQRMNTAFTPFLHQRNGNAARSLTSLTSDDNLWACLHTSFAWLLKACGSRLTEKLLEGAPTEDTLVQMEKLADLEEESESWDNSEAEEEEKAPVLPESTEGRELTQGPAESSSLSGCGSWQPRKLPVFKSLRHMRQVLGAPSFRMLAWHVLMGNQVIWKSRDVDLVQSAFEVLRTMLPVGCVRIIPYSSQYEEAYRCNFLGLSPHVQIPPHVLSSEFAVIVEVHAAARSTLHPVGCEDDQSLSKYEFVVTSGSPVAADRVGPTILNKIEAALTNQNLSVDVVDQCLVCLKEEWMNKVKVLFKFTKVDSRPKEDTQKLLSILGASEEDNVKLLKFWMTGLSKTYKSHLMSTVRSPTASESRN

Variants of: B1
Conditions: with fgf6_human FGF6, P10767

Row | effect of a mutation on the interaction | Variant
1 | with no effect | MSRVPSPPPPAEMSSGPVAESWCYTQIKVVKFSYMWTINNFSFCREEMGEVIKSSTFSSGANDKLKWCLRVNPKGLDEESKDYLSLYLLLVSCPKSEVRAKFKFSILNAKGEETKAMESQRAYRFVQGKDWGVKKFIRRDFLLDEANGLLPDDKLTLFCEVSVVQDSVNISGQNTMNMVKVPECRLADELGGLWENSRFTDCCLCVAGQEFQAHKAILAARSPVFSAMFEHEMEESKKNRVEINDVEPEVFKEMMCFIYTGKAPNLDKMADDLLAAADKYALERLKVMCEDALCSNLSVENAAEILILADLHSADQLKTQAVDFINYHASDVLETSGWKSMVVSHPHLVAEAYRSLASAQCPFLGPPRKRLKQS [F133V]

Variants of: B1
Conditions: with fgf6_human FGF6, P10767
Remark: another data set of the same source

Row | effect of a mutation on the interaction | Variant
2 | with no effect | MSRVPSPPPPAEMSSGPVAESWCYTQIKVVKFSYMWTINNFSFCREEMGEVIKSSTFSSGANDKLKWCLRVNPKGLDEESKDYLSLYLLLVSCPKSEVRAKFKFSILNAKGEETKAMESQRAYRFVQGKDWGLKKFIRRDFLLDEANGLLPDDKLTLFCEVSVVQDSVNISGQNTMNMVKVPECRLADELGGLWENSRFTDCCLCVAGQEFQAHKAILAARSPVFSAMFEHEMEESKKNRVEINDVEPEVFKEMMCFIYTGKAPNLDKMADDLLAAADKYALERLKVMCEDALCSNLSVENAAEILILADLHSADQLKTQAVDFINYHASDVLETSGWKSMVVSHPHLVAEAYRSLASAQCPFLGPPRKRLKQS [F133L]

Variants of: B1
Conditions: with fgf6_human FGF6, P10767
Remark: another data set of the same source

Row | effect of a mutation on the interaction | Variant
3 | with no effect | MSRVPSPPPPAEMSSGPVAESWCYTQIKVVKFSYMWTINNFSFCREEMGEVIKSSTFSSGANDKLKWCLRVNPKGLDEESKDYLSLYLLLVSCPKSEVRAKCKFSILNAKGEETKAMESQRAYRFVQGKDWGFKKFIRRDFLLDEANGLLPDDKLTLFCEVSVVQDSVNISGQNTMNMVKVPECRLADELGGLWENSRFTDCCLCVAGQEFQAHKAILAARSPVFSAMFEHEMEESKKNRVEINDVEPEVFKEMMCFIYTGKAPNLDKMADDLLAAADKYALERLKVMCEDALCSNLSVENAAEILILADLHSADQLKTQAVDFINYHASDVLETSGWKSMVVSHPHLVAEAYRSLASAQCPFLGPPRKRLKQS [F102C]

Variants of: B2
Conditions: with fgf23_human FGF23, Q9GZV9

Row | effect of a mutation on the interaction | Variant
4 | with no effect | MSRVPSPPPPAEMSSGPVAESWCYTQIKVVKFSYMWTINNFSFCREEMGEVIKSSTFSSGANDKLKWCLRVNPKGLDEESKDYLSLYLLLVSCPKSEVRAKCKFSILNAKGEETKAMESQRAYRFVQGKDWGFKKFIRRDFLLDEANGLLPDDKLTLFCEVSVVQDSVNISGQNTMNMVKVPECRLADELGGLWENSRFTDCCLCVAGQEFQAHKAILAARSPVFSAMFEHEMEESKKNRVEINDVEPEVFKEMMCFIYTGKAPNLDKMADDLLAAADKYALERLKVMCEDALCSNLSVENAAEILILADLHSADQLKTQAVDFINYHASDVLETSGWKSMVVSHPHLVAEAYRSLASAQCPFLGPPRKRLKQS [F102C]

Variants of: B2
Conditions: with fgf23_human FGF23, Q9GZV9
Remark: another data set of the same source

Row | effect of a mutation on the interaction | Variant
5 | with no effect | MSRVPSPPPPAEMSSGPVAESWCYTQIKVVKFSYMWTINNFSFCREEMGEVIKSSTFSSGANDKLKWCLRVNPKGLDEESKDYLSLCLLLVSCPKSEVRAKFKFSILNAKGEETKAMESQRAYRFVQGKDWGFKKFIRRDFLLDEANGLLPDDKLTLFCEVSVVQDSVNISGQNTMNMVKVPECRLADELGGLWENSRFTDCCLCVAGQEFQAHKAILAARSPVFSAMFEHEMEESKKNRVEINDVEPEVFKEMMCFIYTGKAPNLDKMADDLLAAADKYALERLKVMCEDALCSNLSVENAAEILILADLHSADQLKTQAVDFINYHASDVLETSGWKSMVVSHPHLVAEAYRSLASAQCPFLGPPRKRLKQS [Y87C]

Variants of: B2
Conditions: with fgf23_human FGF23, Q9GZV9
Remark: another data set of the same source

Row | effect of a mutation on the interaction | Variant
6 | with no effect | MSRVPSPPPPAEMSSGPVAESWCYTQIKVVKFSYMWTINNFSFCREEMGEVIKSSTFSSGANDKLKWCLRVNPKGLDEESKDYLSLYLLLVSCPKSEVRAKFKFSILNAKGEETKAMESQRAYRFVQGKDWGLKKFIRRDFLLDEANGLLPDDKLTLFCEVSVVQDSVNISGQNTMNMVKVPECRLADELGGLWENSRFTDCCLCVAGQEFQAHKAILAARSPVFSAMFEHEMEESKKNRVEINDVEPEVFKEMMCFIYTGKAPNLDKMADDLLAAADKYALERLKVMCEDALCSNLSVENAAEILILADLHSADQLKTQAVDFINYHASDVLETSGWKSMVVSHPHLVAEAYRSLASAQCPFLGPPRKRLKQS [F133L]

Variants of: B2
Conditions: with fgf23_human FGF23, Q9GZV9
Remark: another data set of the same source

Row | effect of a mutation on the interaction | Variant
7 | with no effect | MSRVPSPPPPAEMSSGPVAESWCYTQIKVVKFSYMWTINNFSFCREEMGEVIKSSTFSSGANDKLKWCLRVNPKGLDEESKDYLSLYLLLVSCPKSEVRAKFKFSILNAKGEETKAMESQRAYRFVQGKDWGVKKFIRRDFLLDEANGLLPDDKLTLFCEVSVVQDSVNISGQNTMNMVKVPECRLADELGGLWENSRFTDCCLCVAGQEFQAHKAILAARSPVFSAMFEHEMEESKKNRVEINDVEPEVFKEMMCFIYTGKAPNLDKMADDLLAAADKYALERLKVMCEDALCSNLSVENAAEILILADLHSADQLKTQAVDFINYHASDVLETSGWKSMVVSHPHLVAEAYRSLASAQCPFLGPPRKRLKQS [F133V]

Variants of: B3
Conditions: with flcn_human FLCN

Row | effect of a mutation on the interaction | Variant
8 | with no effect | MSRVPSPPPPAEMSSGPVAESWCYTQIKVVKFSYMWTINNFSFCREEMGEVIKSSTFSSGANDKLKWCLRVNPKGLDEESKDYLSLYLLLVSCPKSEVRAKCKFSILNAKGEETKAMESQRAYRFVQGKDWGFKKFIRRDFLLDEANGLLPDDKLTLFCEVSVVQDSVNISGQNTMNMVKVPECRLADELGGLWENSRFTDCCLCVAGQEFQAHKAILAARSPVFSAMFEHEMEESKKNRVEINDVEPEVFKEMMCFIYTGKAPNLDKMADDLLAAADKYALERLKVMCEDALCSNLSVENAAEILILADLHSADQLKTQAVDFINYHASDVLETSGWKSMVVSHPHLVAEAYRSLASAQCPFLGPPRKRLKQS [F102C]
